Format in all cases: functional, cell-based
Series [1] concerns the target T1, Solute carrier organic anion transporter family member 1A4 (Rattus norvegicus, UniProt O35913).
T1 sequence (O35913 whole entry): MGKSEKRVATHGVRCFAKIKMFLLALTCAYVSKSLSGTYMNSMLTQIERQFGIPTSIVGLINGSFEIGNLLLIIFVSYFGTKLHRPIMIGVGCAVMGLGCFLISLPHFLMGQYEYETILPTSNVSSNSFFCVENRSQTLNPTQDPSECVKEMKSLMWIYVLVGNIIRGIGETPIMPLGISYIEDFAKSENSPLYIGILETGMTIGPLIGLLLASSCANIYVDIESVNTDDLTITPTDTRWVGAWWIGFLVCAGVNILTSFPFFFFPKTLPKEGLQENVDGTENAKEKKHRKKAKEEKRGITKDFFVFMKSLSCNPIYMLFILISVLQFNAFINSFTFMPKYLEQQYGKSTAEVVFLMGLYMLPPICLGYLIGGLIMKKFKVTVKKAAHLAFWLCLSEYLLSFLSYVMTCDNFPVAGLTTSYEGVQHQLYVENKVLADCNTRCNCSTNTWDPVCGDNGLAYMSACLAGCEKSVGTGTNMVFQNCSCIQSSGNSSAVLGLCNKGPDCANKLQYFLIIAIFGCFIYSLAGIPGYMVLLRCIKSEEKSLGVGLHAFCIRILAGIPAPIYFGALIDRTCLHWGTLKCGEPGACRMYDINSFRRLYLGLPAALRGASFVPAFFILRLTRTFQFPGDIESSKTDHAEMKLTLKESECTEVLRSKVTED
The experiment in a line: (§1) TP_TRANSPORTER: uptake in Oatp2-expressing HeLa cells. As to conditions: human.

Substrate in series [2]: [H][C@]12CC[C@]3([H])[C@]([H])(CC[C@]4(C)C([C@H](C)CCC(=O)NCCS(=O)(=O)O)CC[C@@]34[H])[C@@]1(C)CC[C@@H](OS(=O)(=O)O)C2
The series can be described thus: TP_TRANSPORTER: uptake in Oatp1-expressing HeLa cells.

Substrate in series [3]: [H][C@]12CC[C@]3([H])[C@]([H])(CC[C@]4(C)C([C@H](C)CCC(=O)NCCS(=O)(=O)O)CC[C@@]34[H])[C@@]1(C)CC[C@@H](OS(=O)(=O)O)C2
The description is as §1.

Usually Km stands for the substrate concentration at which the rate is half of its maximum.

Turning to `C[C@]12CC[C@@H]3c4ccc(O)cc4CC[C@H]3[C@@H]1CC[C@@H]2O[C@@H]1O[C@H](C(=O)O)[C@@H](O)[C@H](O)[C@H]1O` [ESTRADIOL 17B GLUCURONIDE], the Activity result in series [1] was “substrate [+]”.

B1: Solute carrier organic anion transporter family member 1A1 (Rattus norvegicus) (protein)
chain: MEETEKKIATQEGRLFSKMKVFLLSLTCACLTKSLSGVYMNSMLTQIERQFDISTSVAGLINGSFEIGNLFFIVFVSYFGTKLHRPVVIGIGCVIMGLGCLLMSLPHFFMGRYEYETTISPTGNLSSNSFLCMENRTQTLKPTQDPAECVKEMKSLMWICVMVGNIIRGIGETPIVPLGISYIEDFAKSENSPLYIGILEMGKVAGPIFGLLLGSYCAQIYVDIGSVNTDDLTITPSDTRWVGAWWIGFLVCAGVNILTSIPFFFLPKALPKKGQQENVAVTKDGKVEKYGGQAREENLGITKDFLTFMKRLFCNPIYMLFILTSVLQVNGFINKFTFLPKYLEQQYGKSTAEAIFLIGVYSLPPICLGYLIGGFIMKKFKITVKKAAYLAFCLSVFEYLLFLCHFMLTCDNAAVAGLTTSYKGVQHQLHVESKVLADCNTRCSCSTNTWDPVCGDNGVAYMSACLAGCKKFVGTGTNMVFQDCSCIQSLGNSSAVLGLCKKGPECANRLQYFLILTIIISFIYSLTAIPGYMVFLRCVKSEEKSLGVGLHTFCIRVFAGIPAPVYFGALIDRTCLHWGTLKCGQRGACRMYDINSFRHIYLGLPIALRGSSYLPAFFILILMRKFQFPGDIDSSATDHTEMMLGEKESEHTDVHGSPQVENDGELKTKL
Turning to B1, the Km in series [2] is 12.6 µM.

B2: Solute carrier organic anion transporter family member 1A4 (Rattus norvegicus) (protein)
chain: T1 sequence (O35913 whole entry)
Take B2: the Km in series [3] amounted to 14.6 µM.
